Assay results: paper PMC9482650, “Quantitative fragmentomics allow affinity mapping of interactomes” (Nature Communications, 2022)
Blank lines part the entries; values can stand above or below the binder they belong to.

What was measured:
Experiment in all cases: holdup assay
Design in all cases: key: below the threshold = too weak to quantify, mostly under pKd 3.1 to 4
Details in all cases: plain residues with an end cap or a label only (N-terminal biotin on a linker: ado-ado)
[1] = biological target: T1, ARHGEF11, O15085
T1 sequence (O15085 42-136, limits assumed, looked up): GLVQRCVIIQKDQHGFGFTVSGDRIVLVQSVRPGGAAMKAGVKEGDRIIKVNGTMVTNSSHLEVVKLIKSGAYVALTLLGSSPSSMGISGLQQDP

[2] = biological target: T2, PTPN13_1, Q12923
T2 sequence (Q12923 1088-1188, limits assumed, looked up): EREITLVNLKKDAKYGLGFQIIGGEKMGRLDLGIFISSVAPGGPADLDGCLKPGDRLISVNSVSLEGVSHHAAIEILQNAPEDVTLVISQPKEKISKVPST

[3] = biological target: AHNAK1, Q09666
Chain of AHNAK1, Q09666 (Q09666 4-100): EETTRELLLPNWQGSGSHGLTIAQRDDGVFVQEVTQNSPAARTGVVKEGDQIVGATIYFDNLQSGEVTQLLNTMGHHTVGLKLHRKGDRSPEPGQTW

[4] = biological target: DLG1_2, Q12959
Chain of DLG1_2, Q12959 (Q12959 314-412): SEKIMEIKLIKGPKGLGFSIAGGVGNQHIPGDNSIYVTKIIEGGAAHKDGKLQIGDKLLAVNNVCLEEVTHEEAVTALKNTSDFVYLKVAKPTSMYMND

[5] = biological target: T3, MPDZ_12, O75970
T3 sequence (O75970 1857-1958, limits assumed, looked up): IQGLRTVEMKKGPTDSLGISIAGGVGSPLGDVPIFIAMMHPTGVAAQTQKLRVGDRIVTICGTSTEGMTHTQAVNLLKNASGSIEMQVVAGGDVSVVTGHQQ

[6] = biological target: T4, DLG3_1, Q92796
T4 sequence (Q92796 125-227, limits assumed, looked up): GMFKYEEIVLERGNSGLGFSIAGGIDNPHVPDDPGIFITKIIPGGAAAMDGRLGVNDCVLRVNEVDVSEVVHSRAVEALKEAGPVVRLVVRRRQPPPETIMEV

[7] = biological target: TJP1_3, Q07157
Chain of TJP1_3, Q07157 (Q07157 416-512): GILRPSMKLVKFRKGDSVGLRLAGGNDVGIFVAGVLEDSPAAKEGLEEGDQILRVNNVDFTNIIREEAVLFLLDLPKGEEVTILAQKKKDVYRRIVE

[8] = biological target: NHERF2_2, Q15599
Chain of NHERF2_2, Q15599 (Q15599 142-238): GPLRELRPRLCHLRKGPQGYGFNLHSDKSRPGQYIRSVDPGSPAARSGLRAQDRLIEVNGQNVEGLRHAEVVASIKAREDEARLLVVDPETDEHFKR

[9] = biological target: MAGI1_1, Q96QZ7
Chain of MAGI1_1, Q96QZ7 (Q96QZ7 1-106): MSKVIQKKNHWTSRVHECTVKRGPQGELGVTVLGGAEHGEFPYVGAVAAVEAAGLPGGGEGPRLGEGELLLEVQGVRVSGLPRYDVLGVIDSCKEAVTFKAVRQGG

[10] = biological target: T5, PDZRN3_1, Q9UPQ7
T5 sequence (Q9UPQ7 244-349, limits assumed, looked up): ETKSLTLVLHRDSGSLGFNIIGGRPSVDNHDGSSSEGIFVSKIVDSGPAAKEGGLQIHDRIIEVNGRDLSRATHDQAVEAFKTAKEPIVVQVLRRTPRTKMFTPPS

[11] = biological target: NHERF4_4, Q86UT5
Chain of NHERF4_4, Q86UT5 (Q86UT5 464-550): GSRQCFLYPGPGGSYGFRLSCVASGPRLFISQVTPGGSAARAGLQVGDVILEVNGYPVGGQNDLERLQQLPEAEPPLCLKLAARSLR

[12] = biological target: HTRA2, O43464
Chain of HTRA2, O43464 (O43464 355-458): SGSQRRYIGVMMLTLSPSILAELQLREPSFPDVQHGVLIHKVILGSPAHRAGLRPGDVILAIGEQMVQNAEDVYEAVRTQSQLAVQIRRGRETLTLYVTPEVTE

[13] = biological target: MAGI2_6, Q86UL8
Chain of MAGI2_6, Q86UL8 (Q86UL8 1141-1229): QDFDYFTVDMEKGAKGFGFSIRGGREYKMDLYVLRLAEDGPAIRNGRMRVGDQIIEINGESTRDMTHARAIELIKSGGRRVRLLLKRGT

[14] = biological target: T6, NHERF3_4, Q5T2W1
T6 sequence (Q5T2W1 373-468, limits assumed, looked up): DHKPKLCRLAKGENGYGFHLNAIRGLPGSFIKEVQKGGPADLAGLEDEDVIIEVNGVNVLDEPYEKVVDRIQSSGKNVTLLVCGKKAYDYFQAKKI

[15] = biological target: T7, LRRC7, Q96NW7
T7 sequence (Q96NW7 1440-1537, limits assumed, looked up): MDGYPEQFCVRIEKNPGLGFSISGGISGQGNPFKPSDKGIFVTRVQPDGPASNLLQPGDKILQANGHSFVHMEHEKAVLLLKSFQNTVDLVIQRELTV

[16] = biological target: NHERF4_2, Q86UT5
Chain of NHERF4_2, Q86UT5 (Q86UT5 220-308): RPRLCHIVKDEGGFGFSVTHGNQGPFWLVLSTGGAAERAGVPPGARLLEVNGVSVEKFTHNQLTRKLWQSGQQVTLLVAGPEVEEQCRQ

[17] = biological target: T8, LIN7C, Q9NUP9
T8 sequence (Q9NUP9 88-185, limits assumed, looked up): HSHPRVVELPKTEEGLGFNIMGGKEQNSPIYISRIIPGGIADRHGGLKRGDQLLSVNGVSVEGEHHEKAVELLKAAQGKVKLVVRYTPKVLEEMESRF

[18] = biological target: T9, APBA2_1, Q99767
T9 sequence (Q99767 563-664, limits assumed, looked up): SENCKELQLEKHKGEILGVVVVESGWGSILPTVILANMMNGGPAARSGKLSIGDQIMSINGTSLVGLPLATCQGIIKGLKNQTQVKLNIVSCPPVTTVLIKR

[19] = biological target: DLG1_3, Q12959
Chain of DLG1_3, Q12959 (Q12959 457-571): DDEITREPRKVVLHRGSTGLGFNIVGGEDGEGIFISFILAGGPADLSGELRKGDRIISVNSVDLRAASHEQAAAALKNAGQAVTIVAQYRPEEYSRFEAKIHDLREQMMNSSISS

[20] = biological target: T10, DFNB31_1, Q9P202
T10 sequence (Q9P202 135-233, limits assumed, looked up): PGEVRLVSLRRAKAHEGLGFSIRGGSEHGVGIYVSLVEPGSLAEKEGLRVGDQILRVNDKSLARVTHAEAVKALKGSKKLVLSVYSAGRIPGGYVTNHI

[21] = biological target: Inadl_9, Q8NI35
Chain of Inadl_9, Q8NI35 (Q8NI35 1530-1615): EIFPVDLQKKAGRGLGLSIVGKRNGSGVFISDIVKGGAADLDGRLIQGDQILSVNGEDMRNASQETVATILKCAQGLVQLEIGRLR

[22] = biological target: T11, DFNB31_3, Q9P202
T11 sequence (Q9P202 811-907, limits assumed, looked up): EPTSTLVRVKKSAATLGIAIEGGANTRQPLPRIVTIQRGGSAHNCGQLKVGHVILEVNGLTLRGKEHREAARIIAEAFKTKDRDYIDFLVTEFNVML

[23] = biological target: LNX1_3, Q8TBB1
Chain of LNX1_3, Q8TBB1 (Q8TBB1 500-596): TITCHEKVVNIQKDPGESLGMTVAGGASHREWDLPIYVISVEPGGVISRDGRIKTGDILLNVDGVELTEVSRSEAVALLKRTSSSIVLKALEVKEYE

[24] = biological target: Inadl_1, Q8NI35
Chain of Inadl_1, Q8NI35 (Q8NI35 113-229): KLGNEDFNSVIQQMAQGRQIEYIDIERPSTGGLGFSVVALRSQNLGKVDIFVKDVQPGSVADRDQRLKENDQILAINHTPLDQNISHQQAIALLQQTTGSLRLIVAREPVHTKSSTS

[25] = biological target: MAST2, Q6P0Q8
Chain of MAST2, Q6P0Q8 (Q6P0Q8 1099-1202): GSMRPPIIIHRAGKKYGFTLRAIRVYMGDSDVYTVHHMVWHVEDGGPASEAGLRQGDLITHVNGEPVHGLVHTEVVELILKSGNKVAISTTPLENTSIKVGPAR

[26] = biological target: T12, TIAM2, Q8IVF5
T12 sequence (Q8IVF5 885-986, limits assumed, looked up): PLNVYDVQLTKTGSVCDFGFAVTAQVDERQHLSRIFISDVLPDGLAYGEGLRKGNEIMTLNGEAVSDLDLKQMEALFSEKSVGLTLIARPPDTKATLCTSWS

B2: SEMA4C, Q9C0C4 (peptide)
chain: PDSNPEESSV
pKd [1]: 3.83
pKd [2]: below the threshold
pKd [3]: below the threshold
pKd [4]: 4.3
pKd [5]: below the threshold
pKd [6]: below the threshold
pKd [7]: below the threshold
pKd [8]: 3.88
pKd [9]: 3.57
pKd [10]: 4.37
pKd [11]: below the threshold
pKd [12]: below the threshold
pKd [13]: 4.27
pKd [14]: below the threshold
pKd [15]: below the threshold
pKd [16]: below the threshold
pKd [17]: 3.56
pKd [18]: below the threshold
pKd [19]: 3.65
pKd [20]: 4
pKd [21]: 3.57
pKd [22]: below the threshold
pKd [23]: below the threshold
pKd [24]: below the threshold
pKd [25]: 5.36
pKd [26]: below the threshold

B5: GAB3, Q8WWW8 (peptide)
chain: EWTDERQSKV
pKd [1]: 3.75
pKd [2]: below the threshold
pKd [3]: below the threshold
pKd [4]: 4.01
pKd [5]: below the threshold
pKd [6]: 3.59
pKd [7]: below the threshold
pKd [8]: 3.8
pKd [9]: below the threshold
pKd [10]: 3.62
pKd [11]: below the threshold
pKd [12]: below the threshold
pKd [13]: 3.53
pKd [14]: below the threshold
pKd [15]: below the threshold
pKd [16]: below the threshold
pKd [17]: below the threshold
pKd [18]: below the threshold
pKd [19]: 3.76
pKd [20]: 3.94
pKd [21]: 3.56
pKd [22]: below the threshold
pKd [23]: below the threshold
pKd [24]: below the threshold
pKd [25]: 4.8
pKd [26]: below the threshold

The remaining lines, values ahead:

pKd [1]: below the threshold
pKd [2]: below the threshold
pKd [3]: below the threshold
pKd [4]: below the threshold
pKd [5]: below the threshold
pKd [6]: below the threshold
pKd [7]: below the threshold
pKd [8]: below the threshold
pKd [9]: below the threshold
pKd [10]: below the threshold
pKd [11]: below the threshold
pKd [12]: below the threshold
pKd [13]: below the threshold
pKd [14]: below the threshold
pKd [15]: below the threshold
pKd [16]: below the threshold
pKd [17]: 4
pKd [18]: below the threshold
pKd [19]: below the threshold
pKd [20]: below the threshold
pKd [21]: 3.51
pKd [22]: below the threshold
pKd [23]: below the threshold
pKd [24]: below the threshold
pKd [25]: 3.5
pKd [26]: below the threshold
B1: CLDN9, O95484 (peptide)
chain: ASGLDKRDYV

pKd [1]: 4.01
pKd [2]: 3.54
pKd [3]: below the threshold
pKd [4]: 3.88
pKd [5]: below the threshold
pKd [6]: below the threshold
pKd [7]: below the threshold
pKd [8]: 4.83
pKd [9]: below the threshold
pKd [10]: 4.47
pKd [11]: 3.99
pKd [12]: below the threshold
pKd [13]: 3.51
pKd [14]: below the threshold
pKd [15]: below the threshold
pKd [16]: below the threshold
pKd [17]: 3.68
pKd [18]: below the threshold
pKd [19]: below the threshold
pKd [20]: 4.02
pKd [21]: below the threshold
pKd [22]: 4.01
pKd [23]: below the threshold
pKd [24]: below the threshold
pKd [25]: 5.68
pKd [26]: below the threshold
B3: KCNT1, Q5JUK3 (peptide)
chain: NPETRDETQL

pKd [1]: below the threshold
pKd [2]: below the threshold
pKd [3]: below the threshold
pKd [4]: below the threshold
pKd [5]: below the threshold
pKd [6]: below the threshold
pKd [7]: below the threshold
pKd [8]: below the threshold
pKd [9]: below the threshold
pKd [10]: below the threshold
pKd [11]: below the threshold
pKd [12]: below the threshold
pKd [13]: below the threshold
pKd [14]: below the threshold
pKd [15]: below the threshold
pKd [16]: below the threshold
pKd [17]: below the threshold
pKd [18]: below the threshold
pKd [19]: below the threshold
pKd [20]: 4.39
pKd [21]: below the threshold
pKd [22]: 3.63
pKd [23]: below the threshold
pKd [24]: below the threshold
pKd [25]: 5.6
pKd [26]: 4.04
B4: PLEKHG7, Q6ZR37 (peptide)
chain: FTLPAESSEI
